{"source": "paper PMC4865239", "key": {"[1]": {"biological_target": "CEACAM-binding Opa protein (OpaCEA) from N. gonorrhoeae, expressed in E. coli (E. coli OpaCEA) (Neisseria gonorrhoeae)"}, "[2]": {"biological_target": "AfaE-III adhesin of uropathogenic E. coli strain A30 (E. coli AfaE-III) (E. coli (uropathogenic strain A30))"}}, "data": [{"substance": "GFP-tagged amino-terminal IgV-like domain of human CEA (CEA-N) (domain or fragment)", "values": [{"measurement": "bacteria recovered from the urogenital tract 24 h after vaginal infection, CEAtg mice (human CEA on mucosal surfaces) against wildtype mice", "setting": "[1]", "value": "> 30", "unit": "fold"}, {"measurement": "bacteria recovered from the urogenital tract 24 h after vaginal infection, CEAtg mice (human CEA on mucosal surfaces) against wildtype mice", "setting": "[2]", "value": "> 80", "unit": "fold"}]}]}
